This note sets out measurements from publication PMC4842275.

The assay concerns the target HIV-1 capsid of the wild type HIV-1GFP vector (HIV-1).

Consider “engineered human TRIM5alpha fused with CypA at position S322 (T5Cyp) (from UniProt Q9C035 1-322)”, for which the restriction of HIV-1GFP infection (GFP+ cells by FACS 48 h after infection) in Jurkat T5Cyp cells compared to H126Q cells is 10 fold.
